Measured values from patent publication US20230181528A1, “COMPOSITIONS AND METHODS FOR TREATING NEOPLASIA” (The Broad Institute, Inc., priority 2020, published 2023).

Columns and labels:
VPS4 ATPase activity = experiment: In vitro assay of ATPase activity of recombinant VPS4A and VPS4B constructs; assay type: biochemical; conditions: for fold change in turnover number between VPS4A and VPS4B construct with the same tag: VPS4B construct vs VPS4A construct; for Turnover (preliminary turnover number): recombinant tagged constructs, ATPase activity
Text: Active oligomers of VPS4A and VPS4B were achieved through recombinant production and an in vitro assay was used to measure ATPas activity. […] Hcp1 (also known as His6 tag (SEQ ID NO: 32)) and FL (also known as FLAG tag) were used.

[1] = system: PANC0403 pancreatic cancer cell line (VPS4B^loss); experiment: Interferon dose-response curves with VPS4A suppression (CellTiter-Glo); assay type: cell-based, human; conditions: PANC0403 shVPS4A-2, co-treatment with 1 μM doxycycline, interferon titration for last 3 days
Procedure: (§1) To determine whether interferon treatment cooperate with VPS4A suppression, pancreatic cancer cell lines (KP4, PANC0403 and SNU213) stably expressing the doxycycline-inducible RNAi system against VPS4A (shVPS4A-2) were plated in white-walled 96-well plates at 100˜400 cells per well in 100 μL of 10% FBS-supplemented RPMI-1640 with L-glutamine with or without 1 μM doxycycline. Plates were incubated at 37° C., 5% CO2 for 3 days. […] At the same time, the doxycycline was refreshed. Cells were then incubated for an additional 3 days at 37° C., 5% CO2. Afterwards, 100 μL of premixed CellTiter-Glo (Promega) reagent was added to the wells to lyse cells by shaking the plates at 500 RPM for 10 minutes at room temperature. Luminescence for each well was then measured using an Envision plate reader (Perkin Elmer) to measure cell viability using the ATP-based readout. Luminescence signal for each well was normalized to the average signal from 6 wells treated without interferon for each cell line. These normalized values were then visualized using GraphPad Prism 8.3.0 fitted with a four-parameter log-based non-linear dose-response curve.

[2] = system: SNU213 pancreatic cancer cell line (VPS4B^loss); experiment: as above; assay type: cell-based, human; conditions: SNU213 shVPS4A-2, co-treatment with 1 μM doxycycline, interferon titration for last 3 days
Procedure: as §1

VPS4B^neutral cell lines = experiment: CRISPR-based cell viability assay with CellTiter-Glo (sgRNAs targeting VPS4A); set-up: species or system human; conditions: YAPC; seven-day CellTiter-Glo; scale 0 (cutting controls) to −1 (pan-essential sgRNAs); read from FIG. 2A
Procedure: For FIG. 2A, CellTiter-Glo viability assays were performed with stably expressing SpCas9 cell lines in 96 well plates. Cells were seeded and infected with sgRNA expressing lentivirus in wells on day 0, and selected with puromycin 24 hours later. Cell titer-Glo viability was read out 7 days after plating and infection. Prior to CellTiter-Glo viability assays, all cell lines were individually optimized for the assay including titrating both cell seeding density and volume of virus used for infection. All lentiviral preps for each sgRNA described below were batch controlled and titrated on three different cell lines representing cell lines with low, medium and high transduction efficiency. Optimal cell seeding densities and viral volumes for infections were then used for all subsequent viability assays using CRISPR. […]
Each assay was required to meet specific quality control metrics. […] For quality control of raw luminescence from CellTiter-Glo, infection efficiency (puro/no puro selection for each sgRNA) was required to be at least 80%, and all replicate wells had to be within 2 standard deviations of the mean for that sgRNA infection. […] SpCas9 activity from each cell line was also required to be greater than 50%, determined by the percent viability reduction of the average of the 3 pan-essential genes (sgPOLR2D, sgSF3B1 and sgKIF11) to negative controls (sgLacZ, sgChr2 and sgAAVS1). […]

VPS4B-FL: recombinant VPS4B construct with FL (FLAG) tag
fold change in turnover number between VPS4A and VPS4B construct with the same tag (VPS4 ATPase activity): > 1 fold
Turnover (preliminary turnover number) (VPS4 ATPase activity): 21 s⁻¹

VPS4B-Hcp1: recombinant VPS4B construct with Hcp1 tag
fold change in turnover number between VPS4A and VPS4B construct with the same tag (VPS4 ATPase activity): > 600 fold
Turnover (preliminary turnover number) (VPS4 ATPase activity): 33280 s⁻¹

interferon-γ: purified recombinant human interferon-γ (PeproTech)
sensitization to VPS4A suppression (6-day cell viability) [1]: strongly sensitized
sensitization to VPS4A suppression (6-day cell viability) [2]: strongly sensitized

sgVPS4A2: sgRNA targeting VPS4A intron/exon junction, 5′-GGGCCGCACGAAGTACCTGG (SEQ ID NO: 40) (listed as DNA, chemistry not given here)
VPS4A dependency score (normalized viability effect) (VPS4B^neutral cell lines): 0.3-0.4

sgVPS4A3: sgRNA targeting VPS4A intron/exon junction, 5′-ATTGTTATTCCCCACCCCTG (SEQ ID NO: 41) (listed as DNA, chemistry not given here)
VPS4A dependency score (normalized viability effect) (VPS4B^neutral cell lines): 0.25-0.35

B1: VPS4A-Hcp1: recombinant VPS4A construct with Hcp1 tag (protein, UniProt Q9UN37 1-437, looked up)
Vacuolar protein …: MTTSTLQKAIDLVTKATEEDKAKNYEEALRLYQHAVEYFLHAIKYEAHSDKAKESIRAKCVQYLDRAEKLKDYLRSKEKHGKKPVKENQSEGKGSDSDSEGDNPEKKKLQEQLMGAVVMEKPNIRWNDVAGLEGAKEALKEAVILPIKFPHLFTGKRTPWRGILLFGPPGTGKSYLAKAVATEANNSTFFSVSSSDLMSKWLGESEKLVKNLFELARQHKPSIIFIDEVDSLCGSRNENESEAARRIKTEFLVQMQGVGNNNDGTLVLGATNIPWVLDSAIRRRFEKRIYIPLPEEAARAQMFRLHLGSTPHNLTDANIHELARKTEGYSGADISIIVRDSLMQPVRKVQSATHFKKVCGPSRTNPSMMIDDLLTPCSPGDPGAMEMTWMDVPGDKLLEPVVCMSDMLRSLATTRPTVNADDLLKVKKFSEDFGQES
modifications: Hcp1 tag
Turnover (preliminary turnover number) (VPS4 ATPase activity): 53 s⁻¹

B2: VPS4A-FL: recombinant VPS4A construct with FL (FLAG) tag (protein, UniProt Q9UN37 1-437, looked up)
Vacuolar protein …: MTTSTLQKAIDLVTKATEEDKAKNYEEALRLYQHAVEYFLHAIKYEAHSDKAKESIRAKCVQYLDRAEKLKDYLRSKEKHGKKPVKENQSEGKGSDSDSEGDNPEKKKLQEQLMGAVVMEKPNIRWNDVAGLEGAKEALKEAVILPIKFPHLFTGKRTPWRGILLFGPPGTGKSYLAKAVATEANNSTFFSVSSSDLMSKWLGESEKLVKNLFELARQHKPSIIFIDEVDSLCGSRNENESEAARRIKTEFLVQMQGVGNNNDGTLVLGATNIPWVLDSAIRRRFEKRIYIPLPEEAARAQMFRLHLGSTPHNLTDANIHELARKTEGYSGADISIIVRDSLMQPVRKVQSATHFKKVCGPSRTNPSMMIDDLLTPCSPGDPGAMEMTWMDVPGDKLLEPVVCMSDMLRSLATTRPTVNADDLLKVKKFSEDFGQES
modifications: FLAG tag
Turnover (preliminary turnover number) (VPS4 ATPase activity): 10 s⁻¹
